Laboratory results published in the supplement of paper PMC9233669.
Variants at the floor of the assay were thinned out.

Tests used:
biotinyl-Phe-oxazolone = test: self-aminoacylation, catalytic enhancement (BFO) (fold over background); higher = more active; k-Seq, kA / k0A0; sequences stand for … in GGGAAUGGAUCCACAUCUACGAAUUC…UUCACUGCAGACUUGACGAAGCUG
In short: (§1)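 Mutagenized RNA pools with a 21-nt variable region (0.43 μM) reacted with each biotinyl-aminoacyl-oxazolone at 2–1250 μM. Reactions ran in 50 μL HEPES/NaCl/KCl/MgCl2/CaCl2 buffer with 5% acetonitrile, pH 6.9–7.0, for 90 minutes at room temperature. Streptavidin-captured RNA was quantified by triplicate qPCR and Illumina sequencing, and per-sequence fraction reacted was fit to a pseudo-first-order model with 1000 bootstraps. Catalytic enhancement is median kA divided by the uncatalyzed rate, the low-activity peak of a bimodal Gaussian fit.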

biotinyl-Ile-oxazolone = test: self-aminoacylation, catalytic enhancement (BIO) (fold over background); higher = more active; k-Seq, kA / k0A0; sequences stand for … in GGGAAUGGAUCCACAUCUACGAAUUC…UUCACUGCAGACUUGACGAAGCUG
In short: as §1

biotinyl-Met-oxazolone = test: self-aminoacylation, catalytic enhancement (BMO) (fold over background); higher = more active; k-Seq, kA / k0A0; sequences stand for … in GGGAAUGGAUCCACAUCUACGAAUUC…UUCACUGCAGACUUGACGAAGCUG
In short: as §1

biotinyl-Val-oxazolone = test: self-aminoacylation, catalytic enhancement (BVO) (fold over background); higher = more active; k-Seq, kA / k0A0; sequences stand for … in GGGAAUGGAUCCACAUCUACGAAUUC…UUCACUGCAGACUUGACGAAGCUG
In short: as §1

biotinyl-Leu-oxazolone = test: self-aminoacylation, catalytic enhancement (BLO) (fold over background); higher = more active; k-Seq, kA / k0A0; sequences stand for … in GGGAAUGGAUCCACAUCUACGAAUUC…UUCACUGCAGACUUGACGAAGCUG
In short: as §1

biotinyl-Trp-oxazolone = test: self-aminoacylation, catalytic enhancement (BWO) (fold over background); higher = more active; k-Seq, kA / k0A0; sequences stand for … in GGGAAUGGAUCCACAUCUACGAAUUC…UUCACUGCAGACUUGACGAAGCUG
In short: as §1

Sequence	self-aminoacylation (biotinyl-Phe-oxazolone)	self-aminoacylation (biotinyl-Ile-oxazolone)	self-aminoacylation (biotinyl-Met-oxazolone)	self-aminoacylation (biotinyl-Val-oxazolone)	self-aminoacylation (biotinyl-Leu-oxazolone)	self-aminoacylation (biotinyl-Trp-oxazolone)
AUGUUUGCUAAAAGUCGCAAG [Fam3.1 aminoacylation ribozyme variant]	4.95	1.56	1.69	1.47	1.83	2.45
CCACACUUCAAGCAAUUGGCC [Fam1B.1 aminoacylation ribozyme variant]	2.34	2.77	2.58	4.13	3.18	3.51
CUACUUCAAAAAAUCGGCCUG [Fam1A.1 aminoacylation ribozyme variant]	15.3	1.9	1.73	1.56	1.7	13.1
AUUACCCUGAUCCUCGAGUGA [Fam2.1 aminoacylation ribozyme variant]	8.63	2.35	3.7	2.52	3.73	3.91
AUUCACCUGGGUCGUCGGGUG [Fam2.2 aminoacylation ribozyme variant]	6.66	1.93	2.46	2.48	2.3	2.11
CUUCAGCUAGGUCAUCGGGUG [Fam2.2 aminoacylation ribozyme variant]	16	2.65	3.42	3.6	3.57	3.83
AAGUUUUCUAAUAGUCACAAG [Fam3.1 aminoacylation ribozyme variant]	2.39	1.64	1.25	1.64	1.4	1.87
AUUACCCCGGUCAUCGUGUGA [Fam2.1 aminoacylation ribozyme variant]	16.2	1.55	2.63	1.74	2.57	2.98
CCACACUUCAAGUAUUCGGUC [Fam1B.1 aminoacylation ribozyme variant]	0.932	1.63	1.42	1.64	1.39	1.52
AUUCACCUAGGUCAUUGGGUC [Fam2.2 aminoacylation ribozyme variant]	1.09	0.922	0.808	0.867	0.89	0.734
AAGUUUGCUACUAGCCGCAAG [Fam3.1 aminoacylation ribozyme variant]	1.27	0.746	0.786	0.638	0.51	0.996
AUUGACCUAGGGCAUCGGGUG [Fam2.2 aminoacylation ribozyme variant]	17	3.23	3.13	3.28	3.63	4.66
AUGACGCUGGUCAUCGAGUGA [Fam2.1 aminoacylation ribozyme variant]	36.8	3.6	6.65	3.4	5.8	7.12
CUACUCCACACAAUCGGUCUG [Fam1A.1 aminoacylation ribozyme variant]	0.891	0.696	0.722	0.731	0.702	0.9
CCACACUUCAAGCAAGCAGUC [Fam1B.1 aminoacylation ribozyme variant]	0.916	0.721	0.645	0.857	0.861	0.475
AUUACCCUGGACAUCGUGUGA [Fam2.1 aminoacylation ribozyme variant]	10.9	1.39	2.41	1.44	2.45	2.5
CCACACUUCAGGCAAUCGUUC [Fam1B.1 aminoacylation ribozyme variant]	0.772	0.704	0.618	0.792	0.585	0.422
AUUUACCCAGGUCAUCGGGUG [Fam2.2 aminoacylation ribozyme variant]	44.3	3.28	5.07	3.55	6.46	3.66
AUUCCCUUAGGUCAUCGGGUG [Fam2.2 aminoacylation ribozyme variant]	295	19.3	33.4	20.2	44.3	30.7
AUUCCCCUGGUCAUCGAUUGA [Fam2.1 aminoacylation ribozyme variant]	1.13	1.59	1.55	1.79	1.73	2.47
CUACUUCAACCAAUCGGGCUG [Fam1A.1 aminoacylation ribozyme variant]	7.63	1.71	1.24	1.22	1.68	6.74
AUUCACGUAGGUCAUCGGCUG [Fam2.2 aminoacylation ribozyme variant]	6.6	2.35	2.35	3.36	2.91	3.17
AUUCACCUUGGUCGUCGGGUG [Fam2.2 aminoacylation ribozyme variant]	11.3	1.9	1.86	1.81	2.18	2.01
AUUCACCUAGAUCAUCUGGUG [Fam2.2 aminoacylation ribozyme variant]	14.8	1.71	2.39	1.73	2.82	2.21
GUACUUCAAACAAUCUGUCUG [Fam1A.1 aminoacylation ribozyme variant]	4.1	1.76	1.41	1.56	1.45	3.06
AUUACCCUGAUCAUCGAGUGA [Fam2.1 aminoacylation ribozyme variant]	21.8	3.8	7.96	4.15	7.82	9.57

Sequence	self-aminoacylation (biotinyl-Phe-oxazolone)	self-aminoacylation (biotinyl-Ile-oxazolone)	self-aminoacylation (biotinyl-Met-oxazolone)	self-aminoacylation (biotinyl-Val-oxazolone)	self-aminoacylation (biotinyl-Leu-oxazolone)	self-aminoacylation (biotinyl-Trp-oxazolone)
CCACACUUCACGCGAUCGGUC [Fam1B.1 aminoacylation ribozyme variant]	6.79	1.46	1.48	2.17	1.84	2.37
GUUCCCCUGGUCAUCGAGUGA [Fam2.1 aminoacylation ribozyme variant]	43.4	3.35	5.84	3.82	6.48	7.5
AUUACCCUGGUAAUCGAGGGA [Fam2.1 aminoacylation ribozyme variant]	0.55	1.1	0.924	1.04	0.931	0.832
AUUAACCUAGUCAUCGAGUGA [Fam2.1 aminoacylation ribozyme variant]	15.5	2.94	4.95	2.96	5.13	7.12
GUUCACCUAGGUCUUCGGGUG [Fam2.2 aminoacylation ribozyme variant]	33.8	3.83	4.89	4.05	5.73	5.22
AUUCACCUAGGUCAUCCGGUG [Fam2.2 aminoacylation ribozyme variant]	44.9	4.67	6.35	4.69	8.38	6.3
AUUUACCAAGGUCAUCGGGUG [Fam2.2 aminoacylation ribozyme variant]	77.2	4.61	7.36	4.6	9.69	7.11
CCACGCUUCAAGCACUCGGUC [Fam1B.1 aminoacylation ribozyme variant]	0.769	0.855	0.938	1.29	0.819	0.81
CGACACUUAAAGCAAUCGGUC [Fam1B.1 aminoacylation ribozyme variant]	1.13	0.886	0.956	0.95	0.849	0.792
CCACACUUCAAUCAAUUGGUC [Fam1B.1 aminoacylation ribozyme variant]	0.876	0.598	0.527	0.616	0.545	0.719
AAGUUUGCUAAUACUCGCAAA [Fam3.1 aminoacylation ribozyme variant]	1.26	1.2	1.22	1.05	0.837	1.71
AUUCACCAAGGCCAUCGGGUG [Fam2.2 aminoacylation ribozyme variant]	30.1	3.32	5.09	3.49	5.34	4.57
CUACUUCAAACAAGCGGUUUG [Fam1A.1 aminoacylation ribozyme variant]	0.557	0.89	0.637	0.701	0.705	0.559
CAACACUUCAAGCAAUCGGUU [Fam1B.1 aminoacylation ribozyme variant]	6.96	1.84	1.64	1.52	1.76	4.96
AUUCACCUGGGUCAUCAGGUG [Fam2.2 aminoacylation ribozyme variant]	6.12	1.52	1.48	1.92	1.67	1.36
AUUCACCUAGGUCCUCUGGUG [Fam2.2 aminoacylation ribozyme variant]	31.1	2.57	4.3	2.58	5.9	4.56
AUUCGCCUAGGUCCUCGGGUG [Fam2.2 aminoacylation ribozyme variant]	46.8	4.84	6.35	4.56	8.24	6.48
AAGUUUGCUAUUAGUCGUAAG [Fam3.1 aminoacylation ribozyme variant]	0.987	0.868	0.884	0.923	0.851	1.13
AAGUUUCCUAAAAGUCGCAAG [Fam3.1 aminoacylation ribozyme variant]	2.23	1.7	1.64	1.57	2.06	1.71
CCACACUUCAAGGAAUCGGUG [Fam1B.1 aminoacylation ribozyme variant]	52.1	4.9	7.21	4.61	10.5	6.57
CUACUUCAAACAAUGGGUCUC [Fam1A.1 aminoacylation ribozyme variant]	0.715	0.688	0.609	0.658	0.569	0.428
CCACACUUCAAGCAAACGGUC [Fam1B.1 aminoacylation ribozyme variant]	1.02	0.624	0.511	0.755	0.535	0.599
UCACACUUCAAGCAAUCGGAC [Fam1B.1 aminoacylation ribozyme variant]	1.56	0.844	0.732	0.821	0.598	0.994
AUUCACCUAGAUCAUCGGUUG [Fam2.2 aminoacylation ribozyme variant]	0.463	0.794	0.778	0.983	0.786	0.447
UAGUUUGCUAAUAGUCACAAG [Fam3.1 aminoacylation ribozyme variant]	5.1	1.41	1.51	1.31	1.76	2.38
